The results in this text go back to patent US11746336B2, “Producing 3-hydroxycarboxylic acid and ketone using polyketide synthases” (The Regents of the University of California, priority 2014, dated 2023).

Data set [1] addresses T1, LipPks1+TE (Kitasatospora aureofaciens, UniProt Q30CS2). Briefly: Steady-state kinetic analysis of LipPks1+TE, extension substrate. The format is biochemical, Streptomyces aureofaciens Tü117. The settings on record: tested as potential extender substrate (data not shown). The procedure: Each time point was set up in a reaction volume of 75 μL. Samples containing 10 μM, 20 μM, or 40 μM methylmalonyl-CoA were individually incubated with 500 μM isovaleryl-CoA and 500 μM NADPH in the presence of 0.5 μM LipPks1+TE in 100 mM phosphate buffer, pH 7.2, containing 2.5 mM TCEP at 23° C. The reactions were quenched at different time points by adding 75 μL of methanol and subsequently filtered with an Amicon Ultra-0.5 mL Centrifugal Filter, 3K device (Millipore) at 23° C. 10 μL of the resulting solutions were analyzed by LC-MS. Authentic standard 1e was used to quantify the products in the LC-MS analysis. We assumed that ionization efficiencies of diastereomers were identical.
LC separation of the enzymatically generated products conducted at 50° C. with an Inertsil ODS-3 reverse-phase column (250 mm length, 2.1 mm internal diameter, […] particle size; GL Sciences) using a 1100 series high-performance liquid chromatography system (Agilent Technologies). The mobile phase was composed of 0.2% formic acid in water (solvent A) and 0.2% formic acid in methanol (solvent B). Products were separated using the following gradient: 60% to 100% B for 10 min, held at 100% B for 2 min, 100% to 60% B for 1 min, held at 60% B for 17 min. A flow rate of 0.14 mL/min was used throughout. […]

Data set [2] concerns the target T1, LipPks1+TE. Description: Steady-state kinetic analysis of LipPks1+TE, starter substrates (LC-MS quantification of products 1a-f). The format is biochemical, Streptomyces aureofaciens Tü117.
Method: (§1) A Bradford protein assay was used to measure the concentration of LipPks1+TE. […] Each time point was set up in a reaction volume of 75 μL. Samples containing 20 μM, 40 μM, 80 μM, 160 μM, or 320 μM of acyl-CoA were individually incubated with 200 μM methymalonyl-CoA and 500 μM NADPH in the presence of 0.5 μM LipPks1+TE in 100 mM phosphate buffer, pH 7.2, containing 2.5 mM TCEP at 23° C. The reactions were quenched at different time points by adding 75 μL of methanol and subsequently filtered with an Amicon Ultra-0.5 mL Centrifugal Filter, 3K device (Millipore) at 23° C. 10 μL of the resulting solutions were analyzed by liquid chromatography-mass spectrometry (LC-MS). […] We assumed that ionization efficiencies of diastereomers were identical.
(§2) LC separation of the enzymatically generated products conducted at 50° C. with an Inertsil ODS-3 reverse-phase column (250 mm length, 2.1 mm internal diameter, 3 μM particle size; GL Sciences) using a 1100 series high-performance liquid chromatography system (Agilent Technologies). The mobile phase was composed of 0.2% formic acid in water (solvent A) and 0.2% formic acid in methanol (solvent B). Products were separated using the following gradient: 60% to 100% B for 10 min, held at 100% B for 2 min, 100% to 60% B for 1 min, held at 60% B for 17 min. A flow rate of 0.14 mL/min was used throughout.
(§3) The LC system was coupled to an Agilent Technologies LC-MSD SL electrospray ionization mass (ESI MS) spectrometer. Nitrogen gas was used as both the nebulizing and drying gas to facilitate the production of gas-phase ions. The drying and nebulizing gases were set to 10 L/min and 20 lb/in2, respectively, and a drying gas temperature of 300° C. was used throughout. ESI was conducted in the negative-ion mode with a capillary voltage of 4 kV. […] The instrument was tuned for a range of m/z 50 to 3000 via the Agilent ES tuning mix. Data acquisition and processing were performed by an Agilent Chemstation (Agilent Technologies; Santa Clara, Calif.).
For data set [3], the system named is CCCC(=O)SCCNC(=O)CCNC(=O)[C@H](O)C(C)(C)COP(=O)(O)OP(=O)(O)OC[C@H]1O[C@@H](n2cnc3c(N)ncnc32)[C@H](O)[C@@H]1OP(=O)(O)O. Briefly: purified protein, by the assay type. The settings on record: other: KM of the starter acyl-CoA, 200 μM methylmalonyl-CoA, 500 μM NADPH, 0.5 μM LipPks1+TE, pH 7.2, 23° C.
The subject of data set [4] is CC(C)(C)C(=O)SCCNC(=O)CCNC(=O)[C@H](O)C(C)(C)COP(=O)(O)OP(=O)(O)OC[C@H]1O[C@@H](n2cnc3c(N)ncnc32)[C@H](O)[C@@H]1OP(=O)(O)O. Description: Steady-state kinetic analysis of LipPks1+TE, starter substrates (LC-MS quantification of products 1a-f). The settings on record: other: KM of the starter acyl-CoA, 200 μM methylmalonyl-CoA, 500 μM NADPH, 0.5 μM LipPks1+TE, pH 7.2, 23° C. The format is biochemical, Streptomyces aureofaciens Tü117.
Method: as §1, §2, §3

Data set [5] concerns CC(C)C(=O)SCCNC(=O)CCNC(=O)[C@H](O)C(C)(C)COP(=O)(O)OP(=O)(O)OC[C@H]1O[C@@H](n2cnc3c(N)ncnc32)[C@H](O)[C@@H]1OP(=O)(O)O. The data set is described as above. The format is biochemical, Streptomyces aureofaciens Tü117. The settings on record: other: KM of the starter acyl-CoA, 200 μM methylmalonyl-CoA, 500 μM NADPH, 0.5 μM LipPks1+TE, pH 7.2, 23° C.
Method: as §1, §2, §3
For data set [6], the system named is CC(C)CC(=O)SCCNC(=O)CCNC(=O)[C@H](O)C(C)(C)COP(=O)(O)OP(=O)(O)OC[C@H]1O[C@@H](n2cnc3c(N)ncnc32)[C@H](O)[C@@H]1OP(=O)(O)O. Described as above. Type of data set: biochemical, Streptomyces aureofaciens Tü117. The settings on record: other: KM of the starter acyl-CoA, 200 μM methylmalonyl-CoA, 500 μM NADPH, 0.5 μM LipPks1+TE, pH 7.2, 23° C.
Method: as §1, §2, §3
In data set [7] the test system is CCC(=O)SCCNC(=O)CCNC(=O)[C@H](O)C(C)(C)COP(=O)(O)OP(=O)(O)OC[C@H]1O[C@@H](n2cnc3c(N)ncnc32)[C@H](O)[C@@H]1OP(=O)(O)O. The description is as above. The format is biochemical, Streptomyces aureofaciens Tü117. The settings on record: other: KM of the starter acyl-CoA, 200 μM methylmalonyl-CoA, 500 μM NADPH, 0.5 μM LipPks1+TE, pH 7.2, 23° C.
Method: as §1, §2, §3

For `CC(C)(COP(=O)(O)OP(=O)(O)OC[C@H]1O[C@@H](n2cnc3c(N)ncnc32)[C@H](O)[C@@H]1OP(=O)(O)O)[C@@H](O)C(=O)NCCC(=O)NCCSC(=O)CC(=O)O` [Malonyl-CoA], the “acceptance as extender substrate by the AT domain” value in data set [1] is recorded as “not accepted”.

Consider `CC(=O)SCCNC(=O)CCNC(=O)[C@H](O)C(C)(C)COP(=O)(O)OP(=O)(O)OC[C@H]1O[C@@H](n2cnc3c(N)ncnc32)[C@H](O)[C@@H]1OP(=O)(O)O` [acetyl-CoA], for which the “product formation with starter substrate” value in data set [2] (200 μM methylmalonyl-CoA with NADPH (data not shown)) was “No product was observed”.

`CC(C)C(=O)SCCNC(=O)CCNC(=O)[C@H](O)C(C)(C)COP(=O)(O)OP(=O)(O)OC[C@H]1O[C@@H](n2cnc3c(N)ncnc32)[C@H](O)[C@@H]1OP(=O)(O)O` [isobutyryl-CoA]: the kcat in data set [2] (starter acyl-CoA 20-320 μM, 200 μM methylmalonyl-CoA, 500 μM NADPH, 0.5 μM LipPks1+TE, pH 7.2, 23° C.) came out at 0.053 min⁻¹.

As for LipPks1+TE (Kitasatospora aureofaciens), the Km is 26.4 µM in data set [3]; 8.8 µM in data set [4]; 2.9 µM in data set [5]; 128.1 µM in data set [6]; 13.4 µM in data set [7]. Besides, the kcat worked out at 0.0006 s⁻¹ in data set [3]; 3.33e-05 s⁻¹ in data set [4]; 0.053 min⁻¹ in data set [5]; 0.00483 s⁻¹ in data set [6]; 0.000933 s⁻¹ in data set [7]. Also, the kcat/Km in data set [3] came out at 22.7 M⁻¹ s⁻¹; in data set [4], 4.1 M⁻¹ s⁻¹; in data set [5] it was 304.1 M⁻¹ s⁻¹; in data set [6], 38 M⁻¹ s⁻¹; in data set [7], 70.3 M⁻¹ s⁻¹.
